In patent US11856945B2, “Methods and systems for preparing and preserving a biological sample” (Washington University, priority 2017, dated 2024):

Assay: Preservation of NGAL spiked in artificial urine dried on paper (ELISA)
Assay type: physicochemical
Experimental: The efficacy was evaluated of ZIF-8 encapsulation in preserving NGAL upon exposure to harsh conditions (such as elevated temperatures) that would normally lead to protein denaturation and loss of biospecimen integrity. NGAL-spiked artificial urine dried on paper substrates, both with and without ZIF-8 encapsulation, was stored at 25, 40, or 60° C. for 1 week. Before analysis, the optimized elution buffer (0.2 M phosphate buffer at pH 5.6+Tween 20+EDTA, see Table 1 and FIGS. 8 and 9 for details) was used to elute NGAL from the paper substrates.
The slightly acidic environment (at or below pH 6) was employed to dissociate ZIF-8 crystals and release encapsulated NGAL via breaking coordination between the zinc ions and imidazolate. ZIF-8 encapsulated NGAL dried on the paper was almost fully eluted (>95%) whereas NGAL alone dried on the paper was only partially eluted (˜75%) (FIG. 9). It is important to note that ZIF-8 encapsulation prevented irreversible adsorption of proteins on the cellulose fibers by creating a crystal interface between the protein and paper substrate. […] NGAL concentration was tested by ELISA when NGAL was spiked in four different media. The same concentration of NGAL in phosphate-buffered saline (PBS) at pH 7.4 was set as the reference (100%). […] After storage and elution, the concentration of NGAL in the eluate was quantified using the NGAL sandwich ELISA. The preservation efficacy (preservation %) was calculated by comparing the NGAL amount in the eluate to the spiked NGAL amount in the artificial urine. […] NGAL added on a paper card was stored at 25, 40 or 60° C. for one week. […] The eluates were obtained by eluting paper cards dried with NGAL-spiked artificial urine with or without MOF encapsulation after storage at 40° C. for 1 week.
The preservation efficacy critically depended on the concentrations of 2-methylimidazole and zinc acetate (FIG. 14). […] The maximal preservation percentage was obtained using 160 mM of 2-methylimidazole and 40 mM of zinc acetate. […] A low preservation was noted upon using 40 mM 2-methylimidazole with 10 mM zinc acetate, which is attributed to incomplete encapsulation of NGAL under this condition (˜70% encapsulation of NGAL using 40 mM 2-methylimidazole with 10 mM zinc acetate, FIG. 7). Subsequently, using the optimal ZIF-8 precursor concentration (160 mM 2-methylimidazole and 40 mM zinc acetate), the storage time was extended under different temperatures up to 4 weeks (FIG. 11B). […] Different dried paper strips were sampled at selected time points (2, 3 or 4 weeks) to monitor possible changes in NGAL preservation. With ZIF-8 encapsulation, over 70% of NGAL on paper was preserved up to 4 weeks (the maximum time tested) at all three temperatures (25, 40 and 60° C.), as opposed to 20% preservation on samples without ZIF-8 encapsulation. […] Remarkably, 70% of NGAL on paper could be preserved within 4 weeks at 60° C., which represented an extremely harsh storage condition (a surrogate for long-term storage stability at room temperature).
Sample preparation. NGAL-spiked artificial urine (50 μg/ml of NGAL, 25 μl) or patient urine (25 μl) was first mixed with 2-methylimidazole aqueous solution (12.5 μl) and then zinc acetate dihydrate aqueous solution (12.5 μl). The final concentrations of 2-methylimidazole after mixing were 320 mM, 160 mM, 80 mM and 40 mM. The final concentrations of zinc acetate dihydrate after mixing were 80 mM, 40 mM, 20 mM and 10 mM. […]

B1: neutrophil gelatinase-associated lipocalin (protein, UniProt P80188 21-198, looked up)
Neutrophil …: QDSTSDLIPAPPLSKVPLQQNFQDNQFQGKWYVVGLAGNAILREDKDPQKMYATIYELKEDKSYNVTSVLFRKKKCDYWIRTFVPGCQPGEFTLGNIKSYPGLTSYLVRVVSTNYNQHAMVFFKKVSQNREYFKITLYGRTKELTSELKENFIRFSKSLGLPENHIVFPVPIDQCIDG
notes: urinary biomarker for acute kidney injury; human recombinant
What does the source list for B1?
NGAL preservation (paper card, 25° C., 1 week): less than 30%; NGAL preservation (paper card, 40° C., 1 week): less than 30%; NGAL preservation (paper, 25° C., up to 4 weeks, 160 mM 2-methylimidazole and 40 mM zinc acetate): 20%; NGAL preservation (paper, 40° C., up to 4 weeks, 160 mM 2-methylimidazole and 40 mM zinc acetate): 20%; NGAL preservation (paper, 60° C., up to 4 weeks, 160 mM 2-methylimidazole and 40 mM zinc acetate): 20%
